Assay results from paper PMC2761489.

Legend:
[1] = target: GMPCPP microtubules (GMPCPP-tubulin microtubule lattice; seeds and GMPCPP-grown extensions) of porcine brain tubulin (porcine) (UniProt P02550); assay: two-color TIRF microscopy; GMPCPP seeds immobilised on coverslips (biotin-neutravidin or anti-rhodamine antibodies); 50 nM EB1-GFP with 12 uM free tubulin (10-24 uM in other runs) and 1 mM GTP in Imaging Buffer (BRB80, glucose, glucose-oxidase, catalase, casein, beta-mercaptoethanol), no additional salt; 35 C
[2] = target: Microtubule extensions grown from free porcine brain tubulin with GTP (GDP-tubulin lattice with growing ends) (porcine) (UniProt P02550); assay: as above

**Q.** With “C-terminus GFP-tagged EB1 (from UniProt Q15691 1-268) (natural protein)” as the substance, how does the average fluorescence intensity, seed minus background [1] read?
**A.** Its average fluorescence intensity, seed minus background is 62.6 AU.

**Q.** What about the average fluorescence intensity, extension minus background [2] of the same substance?
**A.** The average fluorescence intensity, extension minus background was 12.8 AU.
